From patent US20100036106

Target: Glutathione S-transferase (GST) (Schistosoma japonicum) (UniProt P08515)
Assay: FP

Glutathione S-transferase (GST) (Schistosoma japonicum), sequence (P08515 2-218): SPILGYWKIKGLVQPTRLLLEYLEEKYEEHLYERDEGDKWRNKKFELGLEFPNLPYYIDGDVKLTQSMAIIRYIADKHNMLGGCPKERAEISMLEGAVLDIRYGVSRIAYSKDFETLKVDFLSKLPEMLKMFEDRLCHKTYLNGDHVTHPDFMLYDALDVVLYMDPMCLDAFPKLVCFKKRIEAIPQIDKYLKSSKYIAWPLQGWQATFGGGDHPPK

GGUAGAUACGAUGGANNNNNNNNNNNNNNNNNNNNNNNNNNNNNNCAUGACGCGCAGCCAA [18th RNA pool]
Kd: 400 nM
